Data taken from patent US20180119166A1.

Target: 6x-histidine-fused LOS4 (LOS4-His) (Arabidopsis) (UniProt Q93ZG7)
Test: cell-based or functional assay

Chain of 6x-histidine-fused LOS4 (LOS4-His) (Arabidopsis) (Q93ZG7 other isoform, or with tags, fused parts or gaps limits assumed): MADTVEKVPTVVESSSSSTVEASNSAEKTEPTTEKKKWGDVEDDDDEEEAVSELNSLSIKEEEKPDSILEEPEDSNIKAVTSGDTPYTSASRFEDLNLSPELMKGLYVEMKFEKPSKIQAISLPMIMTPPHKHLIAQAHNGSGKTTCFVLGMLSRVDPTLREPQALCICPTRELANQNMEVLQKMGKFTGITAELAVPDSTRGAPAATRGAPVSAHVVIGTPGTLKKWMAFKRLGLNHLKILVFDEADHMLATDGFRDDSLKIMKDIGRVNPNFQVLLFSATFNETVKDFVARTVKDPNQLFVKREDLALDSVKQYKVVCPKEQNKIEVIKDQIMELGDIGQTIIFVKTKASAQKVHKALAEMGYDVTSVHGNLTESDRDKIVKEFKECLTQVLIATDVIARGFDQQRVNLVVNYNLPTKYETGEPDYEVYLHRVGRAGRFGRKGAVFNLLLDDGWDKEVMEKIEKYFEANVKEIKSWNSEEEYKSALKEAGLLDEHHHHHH

LOS4 ATPase activity with RNA (LOS4-His and MBP-Gle1C at a ratio of 1:2) [fold]	fold decrease in LOS4-stimulating activity against MBP-Gle1C, absence of InsP6 [fold]	Substance
3	–	MBP fusion protein of the carboxyl-terminal domain of Gle1 (MBP-Gle1C; amino acid residues 244-611) (from UniProt Q0WPZ7 244-611)
–	> 2	MBP-Gle1C (ID) (from UniProt Q0WPZ7 244-611)
